Experiment: soluble on expression in E. coli; label from the status in PepcDB or PDB records

Sequence | soluble on expression in E. coli
AKDWKWNLNWNGALNKNKVVSLPDNGLERNRQSAYQVYTGNGDEKKWVGGYQEGQRPGDLYMFVAEGLYKSQDEIPANLIDLTTGNNGSSGRPLYGGAEGYNKLTDSQKSNALPIQPGDVKWKDVNNDGVIDNYDMVKVGNTVPKWTGGINTTVSWKDLTLSARFDYALGFTAVDWKTMWIMSCAQGTYNTIEETKNTWTPENPNAKYPTYVWADQLGKRNYCRSSSMFAYNGNYIALRELSLSYKLPSILVQKAKLSNVELSITGQNLGYLTEAKHLFSPEKADNNGGYPLPRTVIFGINVSF | not soluble
MEGFSLNQDRGSMQDALKQYKHGLGTFEQKMPLMGRKFNEFTEQCFAGNSLTEREKQLIALGIAINAQDEYCMIYHTKGCLDQGASEENILEAVSVAAAFGGGAAFSQGVTVVQQCIEEFGNTTH | soluble
ATGTCGTTGGCAAAAGCGTCCTTGTGGACGGCGGCCAGTACACTGGTCAAGATTGGTGCCGGGTTACTGGTCGGTAAGTTGCTGGCGGTGTCATTTGGTCCGGCGGGGCTTGGGCTGGCGGCAAATTTCCGCCAGTTGATTACCGTGCTCGGCGTGCTTGCCGGGGCTGGCATCTTTAACGGTGTAACCAAATACGTTGCCCAGTACCATGATAATCCGCAACAGCTGCGCCGCGTGGTCGGCACTTCATCAGCGATGGTACTTGGTTTCTCTACGCTGATGGCGCTGGTTTTTGTGCTGGCAGCTGCGCCAATCAGCCAGGGATTGTTTGGTAATACCGACTATCAGGGGCTGGTGCGTTTAGTGGCGCTGGTGCAAATGGGGATCGCCTGGGGCAACCTGTTACTGGCGCTGATGAAAGGCTTTCGSGATGCCGCAGGTAATGCGTTATCGCTGATTGTCGGCAGCTTGATTGGCGTTCTCGCGTACTACGTCAGTTACCGTTTGGGCGGTTATGAAGGGGCGTTGCTGGGTCTGGCGCTGATTCCCGCGCTGGTGGTAATTCCTGCCGCCATCATGTTGATCAAACGTGGTGTCATCCCGTTAAGCTATCTGAAACCCAGCTGGGATAACGGTCTGGCAGGGCAGTTGAGCAAATTTACGCTCATGGCGTTGATTACGTCGGTGACCTTGCCTGTTGCTTACATCATGATGCGTAAACTGCTGGCGGCGCAGTATAGCTGGGATGAGGTGGGGATCTGGCAAGGGGTGAGCAGTATTTCCGATGCCTACCTGCAATTTATTACGGCATCGTTCAGCGTATATTTGCTGCCCACGTTGTCGCGGCTAACGGAAAAGCGCGATATCACCCGGGAAGTGGTTAAATCGCTGAAATTCGTCTTACCGGCAGTGGCGGCGGCGAGTTTTACCGTCTGGCTGCTGCGTGATTTTGCTATCTGGCTGCTGTTGTCGAATAAATTTACCGCTATGCGCGATCTCTTTGCCTGGCAGTTAGTGGGTGATGTGTTAAAAGTGGGCGCTTATGTCTTTGGTTATCTGGTGATCGCCAAAGCGTCACTGCGGTTTTATATTCTGGCGGAAGTCAGCCAGTTCACTTTATTGATGGTATTTGCCCACTGGCTAATCCCTGCGCATGGTGCACTGGGCGCGGCGCAGGCATATATGGCAACTTATATCGTCTATTTTTCTCTTTGTTGTGGCGTGTTTTTACTCTGGCGTAGGCGGGCATGA | not soluble
MPEFRVWAPKPALVRLDVNGAVHAMTRSADGWWHTTVAAPADARYGYLLDDDPTVLPDPRSARQPDGVHARSQRWEPPGQFGAARTDTGWPGRSVEGAVIYELHIGTFTTAGTFDAAIEKLDYLVDLGIDFVELMPVNSFAGTRGWGYDGVLWYSVHEPYGGPDGLVRFIDACHARRLGVLIDAVFNHLGPSGNYLPRFGPYLSSASNPWGDGINIAGADSDEVRHYIIDCALRWMRDFHADGLRLDAVHALVDTTAVHVLEELANATRWLSGQLGRPLSLIAETDRNDPRLITRPSHGGYGITAQWNDDIHHAIHTAVSGERQGYYADFGSLATLAYTLRNGYFHAGTYSSFRRRRHGRALDTSAIPATRLLAYTCTHDQVGNRALGDRPSQYLTGGQLAIKAALTLGSPYTAMLFMGEEWGASSPFQFFCSHPEPELAHSTVAGRKEEFAEHGWAADDIPDPQDPQTFQRCKLNWAEAGSGEHARLHRFYRDLIALRHNEADLADPWLDHLMVDYDEQQRWVVMRRGQLMIACNLGAEPTCVPVSGELVLAWESPIIGDNSTELAAYSLAILRAAEPA | not soluble
SAQKPKVDPHVGRLGYLQALVTEFQETQSQDAKEQVLANLANFAYDPSNYEYLRQLQVLDLFLDSLSEENETLVEFAIGGLCNLCPDRANKEHILHAGGVPLIINCLSSPNEETVLSAITTLMHLSPPGRSFLPELTATPVVQCMLRFSLSASARLRNLAQIFLEDFCSPRQVAEARSRQAHSALGIPLPRSVAPRQR | soluble
MLRRKPTRLELKLDDTEEFESVKKELESRKKQRDEVDVVGVATSSEMSGAAGGTADGKTREQMIHERIGYKPHPKPNTLPSLFGNLQF | soluble
MSLKKSFLLLPLSLVVLSACTSNFPAPISDADGNFSPSVIQSVNGSNVGGAWQPEIQKNSLPTTGNMVTPQQNFQPINQQPTMPTAPAQPAFQPSPKTVVSAPTVQTKTVTKTVADCVDGQHINIPRNPNTNAPDYSKISKGSYKGNTYKVNKGDTMFLIAYLAGIDVKELAALNNLSEPYNLSLGQVLKISNCDIKTVTTTVSVKQPAVTASTATPVKPAVTYTPGANGTQIGSDGTIIGPIKSEAGTSPSVPVATSSTQVTSSVNNANSTPINSNVVAPIASNVVWQWPTSGNIIQGFSSTDGGNKGIDISGSRGQAVKAAAAGRIVYAGNALRGYGNLIIIKHNDDFLSAYAHNDKILVADQQEVKAGQDIAKMGSSGTNTVKLHFEIRYKGKSVDPVRYLPRHEGHHHHHH | not soluble
GMCINRQILNAVTASNRKKNTPLNTYVSFDEPVNPEDDSQVKLVDVLKSDKEQNPERLFIDQENAESLEDKLYSVLSGFEKNVLELYMSGKDYIAIAQTLDKPPKSIDNAIQRIRNKVDKITNL | not soluble
GKDFTYNVDANVSFARNKILYMDEVPKQFSYMNQTGGSTGRQTGVYNYIRLYQYSDFITGADGELTLKPELPQPYQKVYPGDAMYADLNGDHIVDGNDKSVAGYATRPEYVFGMNMGFDWKGFNFTMQWVGSKNVNRMYDIEYRIPYTNAGKRGLLTYFYDGCWTPENQLGATYPRPSEESESWNSEPSTLWLVDASYLRLKSLSFGYTITGKKFLKKLGLSSLGLNFSGYNLLTFSPLKYLDPESDPNRFGDYPLIKVYSFGLNLNF | not soluble
MDNKSEKVTVNKEELRKRLTPVQYQVTQEAGTERPFTGCYNKHYEKGVYQCIVCHQDLFSSETKYDSGCGWPAFNDVLDKGKVTLHRDASIPGGNILLLIAHPERIRTEVRCARCNAHMGHVFEDGPKPTRKRYCINSASIEFVNADPATSSPPVATPTAAPIAQQLEHHHHHH | soluble
MSLNQASLERNELHNTIWKVANELRGSVDGWDFKQYVLGILFYRYISENMTHYINKEERKRDPSFDYAKLSDEKAERGRKHLIEQKGFFIPPSALFCNALKNACHNEDLNVTLQNIFNEIEKSSLGTPSEENVKGLFADLDVNSNKLGSSHQNRVEKLTKILEAIGGMQLGDYLKSGIDVFGDAYEYLMAMYASNAGKSGGEFFTPQEVSELLAKITLHGQESVNKVYDPCCGSGSLLLQFSKVLGDKNVSKGYFGQEINLTTYNLCRINMFLHDINYSKFHIAHGDTLLDPKHEDDEPFDAIVSNPPYSTKWVGDSNPILINDERFSPAGVLAPKNAADLAFTMHMLSYLSNSGTAAIVEFPGVLYRGNAEAKIREYLVKENVIDCVIALPDNLFFGTSIATCILVLKKNKQDDTTLFIDASKEFVKEGKKNKLKERNREKILQTYIERKEIKHFCALANIEKIKENDYNLSVNRYVEQEDTKEAIDIKALNSEIAQIVEKQSALRNRLESIIKELEGGQNEGHHHHHH | soluble
MSLSIQRILFPTDFSDGARRAFPQAAHLADWHDAGLHILNVTGRHRHDHEETTANFPIATDTLTKWLRRPEKSVRGANWPDLEALPITQEQVESAEPAERILAYAEDEAIDLIVMGTHGRRGVDRMLFGSVTEEVVRKAPCPTLTVRADADVAPDQAVRRVLAPVDFSDASRSAVRHAKEIALTYGAEIDLLHVVEEPFYPPAYGLGETGFPTDKVIGSVEDELADLARSEVGYEHVMIEARTGEPSREILNYIDENEVDLTVIASHGRTGLDRMLIGSVAERVVRQSPTPVFVAKPDRAALVSSDAAEGHHHHHH | not soluble
MIFINREREMKILEKEWENRPSFVVLYGRRRVGKTRLLREFSKAKKTFFFVFPEAIKEIQMREFKDAMADFLGDEFIRKLKTDNWFDLLKYLAEEVDDCLIVLDEFTYAVKSDRKILSDLQRVWDIILSEKKVMLVLSAPLLGMMWDEVLSHASPLYGRRTRSMHLKPLNYPDALNFFSDWEFGIRAYMLVGGIPSYLKLASRYNTIEDFLREEFLSDYGFFYDEPYVLLSEELRELRTYFSILIAIAEGNRRLERIANFVGLPARSIYPYVETLMRLGFIEKESPILGSRKVSLYRIKDPMLLTWLTLTYPQMAEISSGTAKLDKLYRVYSIRFEELAKEFLTLFRPIEFKTLGRWWYRGEEIDIVAIDEDIANLIEVKWMDLRKKEALRVLQELEEKAKKVNFSGKINLGIVARNVEKKEELRKEGYLVWDLEDILEAAGNSEREKLLEHHHHHH | not soluble
ESEILGLFQRWQAAHGQRSGKALEGVYAPRLDYYGRAQTRERTLSAKQAFFARHPDFEQRIVAAPQIVPGDQEGRYEVRFVKQVRLDGRLRNYPGLLLAERAGPGDTWRFVGESDEITRYAVDPRYTPLARGRFAGTEADFAWVVAHAPNSAALCDEYEDCRCDLWSADARVPPK | not soluble
MLASKMRWEIQRPDQDKVKSLTEQLHITPLVASLLVKRGFDTAESARLFLHTKDADFYDPFEMKGMKEAADRIKQAISQQEKIMIYGDYDADGVTSTSVMLHTLQKLSAQVDFYIPDRFKEGYGPNEQAFRSIKERGFSLIITVDTGIAAVHEAKVAKELGLDVIITDHHEPGPELPDVRAIVHPKQPGCTYPFKELAGVGVAFKLAHALLGELPDELLDLAAIGTIADLVPLHDENRLIATLGLERLRRTNRLGLKELIKLSGGDIGEANEETVGFQLAPRLNAVGRIEQADPAVHLLMSEDSFEAEELAAEIDQLNKERQKMVSKMTDEAIEMVEQQGLDQTAIVVAKAGWNPGVVGIVASKLVDRFYRPAIVLGIDEEKGIAKGSARSIRGFNLFESLSECRDILPHFGGHPMAAGMTLKAEDVPDLRSRLNEIADNTLTEEDFIPVQEVDLVCGVEDITVESIAEMNMLSPFGMLNPKPHVLVENAVLEDVRKIGANKTHVKMTIRNESSQLDCVGFNKGELQEGIVPGSRISIVGEMSINEWNNRKKPQLMIKDAAVSEWQLFDLRGKRTWEDTVSALPSAKRAIVSFKEDSTTLLQTEDLRREVHVISSKDQAKAFDLDGAYIVLLDPPPSLDMLARLLEGKAPERIYFIFLNHEDHFLSTFPARDHFKWYYAFLLKRGAFDVKKHGSELAKHKGWSVETINFMTKVFFDLGFVKIENGVLSVVSGAKKRDLTDSQTYQAKQQLMELDQKLNYSSAEELKEWLNKLMKQDSEAYESTRR | not soluble
MGEKIMKSMEIRSSEITTSGAGTLTGYVVRWDKLSELLWGEFYEKFQRGAFTEWLAAGNDVRGLYEHDHSMLLGRTRSGTLKLEEDETGLRFELTPPDTSTGRDVIELVKRGDISGMSFGFRSRKDVWDTTTDPCVRTVLVAELYEITVTSVPAYPDSGVELARRSLYEQHPEKMPRADNRRWWADLAGV | not soluble
